Columns and labels:
Type in all cases: cell-based
[1] = system: NFkB binding site reporter (3x-NFkB TK.LUC) in HepG2 cells; assay: NFkB-luciferase reporter assay in IL-1β-stimulated transfected HepG2 cells; details: IL-1β and estradiol
Description: FIG. 7A is a graphic illustration of the effect of estradiol stimulation of full-length hERβ (hERβL) and truncated hERβ (hERβT) on NFkB activation in HepG2 cells. Cells were transfected with either hERβL or hERβT and co-transfected with a luciferase reporter plasmid containing three copies of an NFkB binding site (3×-NFkB TK.LUC) and a control β-galactosidase plasmid. Cells were stimulated with interleukin-1β and incubated in the absence or presence of estradiol, after which luciferase activity was measured and normalized to β-galactosidase activity. FIG. 7B is a graphic illustration of luciferase activity in cells transfected with either hERβL or hERβT and co-transfected with a luciferase reporter plasmid lacking an NFkB binding site (TK.LUC).
In a separate experiment, HepG2 cells were transfected with hERβT or […] as above, but the reporter gene consisted of three copies of an NFkB binding site upstream of the TK basal promoter. Transfected cells were incubated with or without interleukin-1β (IL-1β) to activate NFkB and/or with estradiol prior to luciferase determination.

[2] = system: ERE (ERE.TK.LUC reporter) in HepG2 cells; assay: ERE-luciferase reporter transactivation in transfected HepG2 cells; details: in the presence of estradiol
Description: FIG. 6A is a graphic illustration of the transcriptional activation capacity of full-length hERβ (hERβL) and truncated hERβ (hERβT) expressed in HepG2 cells. Cells were transfected with either hERβL or hERβT and co-transfected with a luciferase reporter plasmid containing an estrogen response element (ERE) (ERE.TK.LUC) and a control β-galactosidase plasmid. Cells were incubated in the absence or presence of estradiol, after which luciferase activity was measured and normalized to β-galactosidase activity. FIG. 6B is a graphic illustration of luciferase activity in HepG2 cells transfected with either hERβL or hERβT and co-transfected with a luciferase reporter plasmid lacking an ERE (TK.LUC)
HepG2 cells (ATCC) were transfected in parallel with either pcDNA3-hERβL or pcDNA3-hERβT using the calcium phosphate co-precipitation method. Cells were co-transfected with a reporter plasmid containing a luciferase gene preceded by either an ERE upstream of the thymidine kinase (TK) basal promoter, or the TK basal promoter alone. […] Luciferase activity was measured by a chemiluminescent method using the Promega luciferase assay system, and β-galactosidase activity was measured by Galactolight (Tropix, Inc., Bedford Mass.); luciferase activity was then normalized to β-galactosidase activity.

[3] = system: ERE-reporter gene in HAECT-1 cells; assay: ERE-luciferase reporter transactivation in HAECT-1 human endothelial cells; details: 100 nM 17-β estradiol overnight
Description: FIG. 8 is a graphic illustration of the transcriptional activation capacity of full-length hERβ (hERβL) and truncated hERβ (hERβT) expressed in HAECT-1 human endothelial cells. Cells were transfected with either hERβL or hERβT and co-transfected with a luciferase reporter plasmid containing an ERE (ERE.TK.LUC) or one lacking an ERE (TK.LUC). Cells were incubated in the absence or presence of estradiol, after which luciferase activity was measured. ERE TK.LUC values were normalized to TK.LUC values and are presented as mean±S.E. (n=4).
HAECT-1 cells (a clonal immortalized human aortic endothelia cell line derived by infection with Ad5 ori-SV40 ts A209) were transfected with pcDNA3hERβT or pcDNA3-hERβL and ERE-luciferase plasmids by electroporation. After 4 hours, the cells were treated overnight with or without 100 nM 17-β estradiol prior to luciferase activity measurements. […] In independent experiments, cells transfected under identical conditions were monitored for their levels of estrogen receptors using a ligand binding assay.

[4] = system: ERE-LacZ reporter (YRpE2) in S. cerevisiae strain BJ2168; assay: ERE-LacZ reporter assay in yeast; details: 17-β estradiol or Genistein for 3 hours

B1: hERβT: truncated human estrogen receptor-β lacking the first 45 amino acids (Clone 3) (protein, UniProt Q92731 46-530, looked up, fragment)
chain: MTFYSPAVMNYSIPSNVTNLEGGPGRQTTSPNVLWPTPGHLSPLVVHRQLSHLYAEPQKSPWCEARSLEHTLPVNRETLKRKVSGNRCASPVTGPGSKRDAHFCAVCSDYASGYHYGVWSCEGCKAFFKRSIQGHNDYICPATNQCTIDKNRRKSCQACRLRKCYEVGMVKCGSRRERCGYRLVRRQRSADEQLHCAGKAKRSGGHAPRVRELLLDALSPEQLVLTLLEAEPPHVLISRPSAPFTEASMMMSLTKLADKELVHMISWAKKIPGFVELSLFDQVRLLESCWMEVLMMGLMWRSIDHPGKLIFAPDLVLDRDEGKCVEGILEIFDMLLATTSRFRELKLQHKEYLCVKAMILLNSSMYPLVTATQDADSSRKLAHLLNAVTDALVWVIAKSGISSQQQSMRLANLLMLLSHVRHASNKGMEHLLNMKCKNVVPVYDLLLEMLNAHVLRGCKSSITGSECSPAEDSKSKEGSQNPQSQ
[1]
  attenuation of IL-1β-mediated NFkB transcriptional activation: no inhibitory activity

B2: hERβL: full-length human estrogen receptor-β of 530 amino acid residues, SEQ ID NO:2 (protein)
chain: MDIKNSPSSLNSPSSYNCSQSILPLEHGSIYIPSSYVDSHHEYPAMTFYSPAVMNYSIPSNVTNLEGGPGRQTTSPNVLWPTPGHLSPLVVHRQLSHLYAEPQKSPWCEARSLEHTLPVNRETLKRKVSGNRCASPVTGPGSKRDAHFCAVCSDYASGYHYGVWSCEGCKAFFKRSIQGHNDYICPATNQCTIDKNRRKSCQACRLRKCYEVGMVKCGSRRERCGYRLVRRQRSADEQLHCAGKAKRSGGHAPRVRELLLDALSPEQLVLTLLEAEPPHVLISRPSAPFTEASMMMSLTKLADKELVHMISWAKKIPGFVELSLFDQVRLLESCWMEVLMMGLMWRSIDHPGKLIFAPDLVLDRDEGKCVEGILEIFDMLLATTSRFRELKLQHKEYLCVKAMILLNSSMYPLVTATQDADSSRKLAHLLNAVTDALVWVIAKSGISSQQQSMRLANLLMLLSHVRHASNKGMEHLLNMKCKNVVPVYDLLLEMLNAHVLRGCKSSITGSECSPAEDSKSKEGSQNPQSQ
modifications: Human
[2]
  activity relative to hERβT (ERE activity): about 3 fold
[1]
  attenuation of IL-1β-mediated NFkB transcriptional activation: capable of attenuating
[3]
  activity in activating the ERE-reporter gene relative to hERβT: 2–3 times
[4]
  maximal level of estrogen-stimulated LacZ expression relative to hERβT-transformed cells: 2 fold

From US7157568B1, “Human estrogen receptor-β” (American Home Products Corporation, priority 1997, dated 2007)
